# Data as given in US20190125833A1 (Five Prime, published 2019).
# T1: Myostatin (UniProt O14793 267-375, limits assumed)
# T1 sequence (looked up): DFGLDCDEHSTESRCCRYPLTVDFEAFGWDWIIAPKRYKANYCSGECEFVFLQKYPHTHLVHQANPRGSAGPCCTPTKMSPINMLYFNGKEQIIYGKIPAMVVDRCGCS
# B1: hNOPE (1-957) ECD-FC (Fc fusion, not shown: a dimerising Fc or GST)
# chain: ELLLPQETTVELSCGVGPLQVILGPEQAAVLNCSLGAAAAGPPTRVTWSKDGDTLLEHDHLHLLPNGSLWLSQPLAPNGSDESVPEAVGVIEGNYSCLAHGPLGVLASQTAVVKLATLADFSLHPESQTVEENGTARFECHIEGLPAPIITWEKDQVTLPEEPRLIVLPNGVLQILDVQESDAGPYRCVATNSARQHFSQEALLSVAHRGSLASTRGQDVVIVAAPENTTVVSGQSVVMECVASADPTPFVSWVRQDGKPISTDVIVLGRTNLLIANAQPWHSGVYVCRANKPRTRDFATAAAELRVLAAPAITQAPEALSRTRASTARFVCRASGEPRPALRWLHNGAPLRPNGRVKVQGGGGSLVITQIGLQDAGYYQCVAENSAGMACAAASLAVVVREGLPSAPTRVTATPLSSSAVLVAWERPEMHSEQIIGFSLHYQKARGMDNVEYQFAVNNDTTELQVRDLEPNTDYEFYVVAYSQLGASRTSTPALVHTLDDVPSAAPQLSLSSPNPSDIRVAWLPLPPSLSNGQVVKYKIEYGLGKEDQIFSTEVRGNETQLMLNSLQPNKVYRVRISAGTAAGFGAPSQWMHHRTPSMHNQSHVPFAPAELKVQAKMESLVVSWQPPPHPTQISGYKLYWREVGAEEEANGDRLPGGRGDQAWDVGPVRLKKKVKQYELTQLVPGRLYEVKLVAFNKHEDGYAAVWKGKTEKAPAPDMPIQRGPPLPPAHVHAESNSSTSIWLRWKKPDFTTVKIVNYTVRFSPWGLRNASLVTYYTSSGEDILIGGLKPFTKYEFAVQSHGVDMDGPFGSVVERSTLPDRPSTPPSDLRLSPLTPSTVRLHWCPPTEPNGEIVEYLILYSSNHTQPEHQWTLLTTQGNIFSAEVHGLESDTRYFFKMGARTEVGPGPFSRLQDVITLQEKLSDSLDMHSVT
# B2: mNOPE (1-955) ECD-FC (Fc fusion, not shown: a dimerising Fc or GST)
# chain: ELPLPQETTVKLSCDEGPLQVILGPEQAVVLDCTLGATAAGPPTRVTWSKDGDTVLEHENLHLLPNGSLWLSSPLEQEDSDDEEALRIWKVTEGSYSCLAHSPLGVVASQVAVVKLATLEDFSLHPESQIVEENGTARFECHTKGLPAPIITWEKDQVTVPEESRLITLPNGVLQILDVQDSDAGSYRCVATNSARQRFSQEASLTVALRGSLEATRGQDVVIVAAPENTTVVSGQSVVMECVASADPTPFVSWVRQDGKPISTDVIVLGRTNLLIASAQPRHSGVYVCRANKPRTRDFATAAAELRVLAAPAISQAPEALSRTRASTARFVCRASGEPRPALHWLHDGIPLRPNGRVKVQGGGGSLVITQIGLQDAGYYQCVAENSAGTACAAAPLAVVVREGLPSAPTRVTATPLSSSSVLVAWERPELHSEQIIGFSLHYQKARGVDNVEYQFAVNNDTTELQVRDLEPNTDYEFYVVAYSQLGASRTSSPALVHTLDDVPSAAPQLTLSSPNPSDIRVAWLPLPSSLSNGQVLKYKIEYGLGKEDQVFSTEVPGNETQLTLNSLQPNKVYRVRISAGTGAGYGVPSQWMQHRTPGVHNQSHVPFAPAELKVRAKMESLVVSWQPPPHPTQISGYKLYWREVGTEEEADGDRPPGGRGDQAWDVGPVRLKKKVKQYELTQLVPGRLYEVKLVAFNKHEDGYAAVWKGKTEKAPTPDLPIQRGPPLPPAHVHAESNSSTSIWLRWKKPDFTTVKIVNYTVRFGPWGLRNASLVTYYTSSGEDILIGGLKPFTKYEFAVQSHGVDMDGPFGSVVERSTLPDRPSTPPSDLRLSPLTPSTVRLHWCPPTEPNGEIVEYLILYSNNHTQPEHQWTLLTTEGNIFSAEVHGLESDTRYFFKMGARTEVGPGPFSRLQDVITLQKTFSDSLDVHAV
# Target: T1, Myostatin
# Assay: cell-based or functional assay
"IC50 of inhibition of myostatin dependent SMAD2/3 activation (luciferase reporter, HEK293, 0.1 nM myostatin) [nM]",fold difference of IC50 against hNOPE (1-620) ECD-FC [fold],fold difference of IC50 against hNOPE (1-957) ECD-FC [fold],Binder
0.5,–,–,B1
0.068,2.5,7,B2
